Target: T1, recombinant gp160 (HIV-1 group M subtype B, IIIB (clone …, UniProt P03375, strain))
T1 construct: also called rgp160; source: bought: Quality Biological; recombinant, expressed in mammalian cells
Assay: SPR
Details: both partners purified

B1: 7B2 (antibody, V domains shown)
VH: QVQLVQSGGGVFKPGGSLRLSCEASGFTFTEYYMTWVRQAPGKGLEWLAYISKNGEYSKYSPSSNGRFTISRDNAKNSVFLQLDRLSADDTAVYYCARADGLTYFSELLQYIFDLWGQGARVTVSS
VL: DIVMTQSPDSLAVSPGERATIHCKSSQTLLYSSNNRHSIAWYQQRPGQPPKLLLYWASMRLSGVPDRFSGSGSGTDFTLTINNLQAEDVAIYYCHQYSSHPPTFGHGTRVELR
notes: also called anti-gp41 Ab (7B2); 7B2 parent; source: 293F cells, transiently transfected; purified from supernatant on Protein A agarose
  binding result: binds

— paper PMC3464217, “Anti-HIV Double Variable Domain Immunoglobulins Binding Both gp41 and gp120 for Targeted Delivery of Immunoconjugates” (PLoS ONE, 2012)
